Source: US20250313650A1 (BIOLEGEND, published 2025)
Residue numbers refer to the chain shown, from its start. Values belong to the binder of their own block, whether it stands above or below them.

What was measured:
[1] = biological target: T1, CHI3L2 expressed in human T cell leukemia cell line Jurkat (human, UniProt Q15782 27-390); test: flow cytometry on fixed/permeabilized CHI3L2-expressing Jurkat cells, Alexa-647 antibody
T1 construct: whole, on cells; Endogenous protein, detected by intracellular staining
T1 sequence (looked up): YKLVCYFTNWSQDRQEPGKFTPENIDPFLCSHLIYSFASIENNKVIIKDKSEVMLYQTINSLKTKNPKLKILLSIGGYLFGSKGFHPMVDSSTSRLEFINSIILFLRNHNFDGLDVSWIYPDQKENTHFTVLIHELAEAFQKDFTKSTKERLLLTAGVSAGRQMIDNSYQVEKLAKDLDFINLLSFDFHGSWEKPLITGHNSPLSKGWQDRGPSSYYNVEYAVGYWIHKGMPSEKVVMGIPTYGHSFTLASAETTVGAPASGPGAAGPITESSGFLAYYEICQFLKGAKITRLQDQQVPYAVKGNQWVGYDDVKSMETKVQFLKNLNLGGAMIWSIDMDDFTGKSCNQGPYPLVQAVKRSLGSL
Description: To asses for cross-reactivity with the closely related protein CHI3L2, certain anti-CHI3L1 antibody clones were assessed using CHI3L2 expressing human T cell leukemia cell line Jurkat. Jurkat cells were grown in RPMI media supplemented with 10% FBS in T75 culture flask. Cells were fixed in Fixation Buffer and permeabilized using Intracellular Perm Wash Buffer. 1 μg anti-CHI3L1 antibodies (conjugated to Alexa-647) were added and allowed to incubate for 15 minutes. Cells were then washed twice with Intracellular Perm Wash Buffer and analyzed on a BD LSRII flow cytometer.

[2] = biological target: T2, recombinant CHI3L2 (UniProt Q15782 27-390, limits assumed); test: flow cytometry blocking assay on fixed/permeabilized THP-1 cells; antibody pre-incubated with recombinant protein
T2 sequence (looked up): T1 sequence (looked up)
Description: (§1) To assess for specificity for CHI3L1 and cross-reactivity with the closely related protein CHI3L2, certain anti-CHI3L1 antibody clones were assessed using CHI3L1 expressing human […] cell line THP-1. THP-1 cells were grown in RPMI media supplemented with 10% FBS in T75 culture flask. Cells were fixed in Fixation Buffer and permeabilized using Intracellular Perm Wash Buffer. 1 μg anti-CHI3L1 antibodies (conjugated to Alexa-647) were incubated with 5 μg recombinant CHI3L1 or recombinant CHI3L2 for 15 minutes and then added to cells. After 15 minutes incubation, cells were then washed twice with Intracellular Perm Wash Buffer and analyzed on a BD LSRII flow cytometer.

[3] = biological target: T3, CHI3L1 expressed in human cell lines (THP-1, U-87 MG) (human, UniProt P36222 22-383); test: flow cytometry, fixed/permeabilized CHI3L1-expressing THP-1 cells, 1 µg Alexa-647 antibody
T3 construct: Endogenous CHI3L1 of human cell lines; It was detected inside fixed and permeabilized cells, not on the cell surface; In the ERK assay it is the CHI3L1 made by live U-87 MG cells; also called chitinase 3 like protein 1; YKL-40
Description: In a first experiment, certain anti-CHI31L1 antibodies were assessed using CHI31L1 expressing human […] cell line THP-1. THP-1 cells were grown in RPMI media supplemented with 10% FBS in T75 culture flask. Cells were fixed in Fixation Buffer and permeabilized using Intracellular Perm Wash Buffer. 1 μg anti-CHI31L1 antibodies (conjugated to Alexa-647) were added and allowed to incubate for 15 minutes. Cells were then washed twice with Intracellular Perm Wash Buffer and analyzed on a BD LSRII flow cytometer.

[4] = biological target: T4, recombinant human CHI3L1 (human, UniProt P36222 22-383); test: flow cytometry blocking assay: 1 µg antibody pre-incubated with 5 µg recombinant CHI3L1, then added to THP-1 cells
T4 construct: also called recombinant CHI3L1; CHI3L1 protein
Description: as §1

[5] = biological target: T4, recombinant human CHI3L1; test: flow cytometry blocking assay on THP-1 cells (FIG. 5A legend)
Description: as §1

[6] = biological target: T4, recombinant human CHI3L1; test: bead-based sandwich immunoassay; biotinylated Clone B is the detection antibody, SAV-PE read-out
Description: In this Example, Clone F was paired with Clone B in a bead-based sandwich immunoassay. The assay used Clone F as a capture antibody to capture the antigen (CHI3L1 protein) and then Clone B was used as a detection antibody. The Clone F capture antibody was conjugated on the beads and the Clone B detection antibody was biotinylated. After incubation of the Clone F conjugated beads with CHI3L1 and then detection Clone B, on the beads surface, a sandwich including capture Clone F-CHI3L1-detection Clone B formed. The unbound CHI3L1 protein was then washed off and then streptavidin conjugated to phycoerythrin (SAV-PE) was added, which binds the biotin on the detection Clone B. The final complex including beads-Clone F capture antibody-CHI3L1-Clone B-SAV-PE was acquired onto a flow cytometer and the PE signal on the beads was measured.

T3 sequence (P36222 22-383 limits assumed): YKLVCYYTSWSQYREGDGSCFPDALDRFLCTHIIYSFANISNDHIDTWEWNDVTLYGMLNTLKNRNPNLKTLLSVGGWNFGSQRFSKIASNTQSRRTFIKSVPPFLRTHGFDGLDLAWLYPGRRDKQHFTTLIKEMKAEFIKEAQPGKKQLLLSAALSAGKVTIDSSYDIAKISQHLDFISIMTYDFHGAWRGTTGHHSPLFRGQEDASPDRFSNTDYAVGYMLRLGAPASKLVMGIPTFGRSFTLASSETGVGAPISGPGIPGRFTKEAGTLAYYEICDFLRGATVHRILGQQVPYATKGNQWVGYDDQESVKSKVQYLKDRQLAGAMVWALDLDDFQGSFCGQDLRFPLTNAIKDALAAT
T4 sequence (P36222 22-383 limits assumed): as above

binding result [1]: no binding (tested: 1 µg)
binding result [2]: no binding
B1: anti-human CHI3L1 (Clone F) (antibody, V domains shown)
VH: QVQLQQSGPELVRPGVSVKISCKGSGYTFTDYAMHWVKQSHAKSLEWIGVISTYSGHTNYNQKFKGKATMTVDKSSSTAYMELARLTSEDSAIYYCARGVYYKPEFDYWGQGTTLTVSS
VL: DIQMTQSSSSFSVSLGDRVTITCKASEDIYNRLAWYQQKPGNAPRLLIFGATSLETGVPSRFSGSGSGKDYTLSITSLQTEDVATYYCQQYSSTPPTFGGGTKLEIK
notes: Hybridoma monoclonal antibody; a mouse IgG1 kappa isotype control was used alongside it

binding result [3]: binds
binding result [4]: binds
binding result [1]: no binding (tested: 1 µg)
binding result [2]: no binding
B2: anti-human CHI3L1 (Clone H) (antibody, V domains shown)
VH: B1 VH with D31H, H57N
VL: B1 VL with Y30D, F49S, S92W
notes: Hybridoma monoclonal antibody; Conjugated to Alexa-647 for flow cytometry

binding result [3]: binds
binding result [1]: no binding (tested: 1 µg)
binding result [5]: binds
binding result [2]: no binding
B3: Clone A (antibody, V domains shown)
VH: DVQLQESGPDLVKPSQSLSLTCTVTGYSITSGYSWHWIRQFPGNKLEWMGYIHYSGRTNYNPSLKSRISFTRDTSKNQFFLRLNSVTPEDTATYYCARNYGYDEFAYWGQGTLVTVSA
VL: QIVLTQSPAIMSASPGEKVTMTCSASSSVSYMHWYQQKSGTSPKRWIYDTSKLASGVPARFSGSGSGTSYSLTISSMEAEDAATYYCQQWSSNPPTFGSGTKLEIK
notes: as for B2

binding result [3]: binds
B4: Clone E (antibody, V domains shown)
VH: B3 VH with R57T, F70I, R82Q, P88T, Y95S
VL: B3 VL
notes: as for B2

binding result [6]: binds
B5: Clone B (antibody, V domains shown)
VH: EVKLLESGGGLVQPGGSLKLSCAASGCDFSRYWMSWVRQAPGKGLEWIGEINPDSSTINYTPSLKDKFIISRDNAKNTLYLQMSKVRSEDTALYYCARPEDHFAMDYWGQGTSVTVSS
VL: DIQMTQSPASQSASLGESVTITCLASQTIGTWLAWYQQKPGKSPQLLIYAATSLADGVPSRFSGSGSGTKFSFKISSLQAEDFVSYYCQQLYSTPWTFGGGTKLEIK
notes: Hybridoma monoclonal antibody
